# B1: NRCoV2-10 VHH (VHH)
# VHH: QLQLQESGGGLVQPGGSLTLSCAASGNTFSRSNMHWYRQAPGAQREWVAAISSRGISTYAYSAKGRFTISRDNAKNTVSLQMNSLKPEDTAVYYCYAADDLGDYWGQGTQVTVSS
# B2: NRCoV2-03 VHH (VHH)
# VHH: EVQLVSSGGGLVQAGGSLRLSCTASGITFSYYAMGWYRQAPGQPRELVASMSNMDSTIYADSVKGRFTISRDNAKTTIYLQMNNLKPEDTAVYFCNIYGPTYSTRRNEYWGQGTQVTVSS
# B3: NRCoV2-MRed04 VHH (VHH)
# VHH: EVQLVESGGGLVQPGRSLRLSCAASGNSFSISTMGWFRQAPGKERELVASIWSDTTTSYADSVKGRFTISTDNTRTKVYLQMSSLNPEDTAVYYCAADRGFVVRGQYDYWGQGTQVTVSS
# B4: NRCoV2-15 VHH (VHH)
# VHH: EVQLVSSGGGLVEAGGSLRLSCIASGSTSGRNTMGWFRQAPGKQREWVAIVSTSGATNYAGSVKGRFTLSRDNAKNAVYLQMNNLKPEDTAVYYCYAAYGGGGDYWGQGTQVTVSS
# B5: NRCoV2-S2A4 VHH (VHH)
# VHH: QVQLVQSGGGLVQAGGSLRLSCAVSGSPFRSNVMEWYRQAPGKQRELVASISTGGSRTYTDSVKGRFTISRDNAKNEAFLQMNSLKPEDTAVYYCHAAARDSHGIYLLDTWGQGTQVTVSS
# B6: NRCoV2-02 VHH (VHH)
# VHH: EVQLVESGGGLVQAGGSLRLSCAASGFTFSNYAMNWVRQAPGKGLEWVSGISGRGDDTRYADSVKGRFTISRDNAKNTLFLQMRSLRPEDTGVYRCTKGPDLYYFGSGYSDRGQGTQVTVSS
# B7: NRCoV2-SR03 VHH (VHH)
# VHH: AVQLVDSGGGLVQAGGSLRLSCAASGSIFSNNHMGWYRQAPGKQRELVAAISSGGKTNYADFAKGRFTISRDNAKNMVYLQMNSLKPEDTAVYYCNRGGWEYRSSYYIMGPHWGQGTQVTVSS
# B8: NRCoV2-SR02 VHH (VHH)
# VHH: EVQLVDSGGGLVQAGGSLRLSCTASEFTLNYYSIGWFRQSPGKEREGVSCIRYSGGGIDYADSVKGRFTISRDNAKNTVYLTMNSLKPEDTAVYYCAADRLYSRACPTAGGRNYWGQGTQVTVSS
# B9: NRCoV2-S2G3 VHH (VHH)
# VHH: QVQLVQSGGGSVQAGGSLRLSCAASGSTFGIFLMGWRRQAPGKQRELVAHITSGGATNYADSVKGRFTISRDNAKNTVYLQMNSLEPEDTAVYYCYTTKRDDASVYWGQGTQVTVSS
# B10: NRCoV2-05 VHH (VHH)
# VHH: EVKLVQSGGGLVQPGGSLRLSCAASGFIFSNYAMNWVRQAPGKGLEWVSGINSGGGDTRYADSVKGRFTVSRDNAKNTLYLQMNSLKPEDTGVYYCSKGPVSSYYGSGYDYRGQGTQVTVSS
# B11: NRCoV2-MRed05 VHH (VHH)
# VHH: EVQLVESGGGLVQPGGSLRLSCAASGFTLDYYAIGWFRQAPGKEREGVSCISSSDGSTLYADSVKGRFTISRDNAKNTVYLQMNSLKPEDTAVYYCATGPQAYYSGSYYFQCPQAGMDYWGKGTQVTVSS
# Key:
# [1] = target: Human SARS-CoV-2_Wuhan S (SmT1) (SARS-CoV-2 (Wuhan), UniProt P0DTC2 14-1208); assay: flow cytometry SVNA, VHH vs biotin-S binding to Vero E6 ACE2
# [2] = target: T1, SARS-CoV-2 spike trimer S (Wuhan, SmT1) (SARS-CoV-2 Wuhan); assay: SPR, antigen on chip
# T1 construct: extracellular domain
# [3] = target: T2, SARS-CoV-2 S1 (aa16-685) (Wuhan) (SARS-CoV-2 Wuhan, UniProt P0DTC2 16-685); assay: SPR, antigen on chip
# T2 construct: NRC; FLAG, 6xHis tags
# [4] = target: T3, SARS-CoV-2 S2 (aa686-1208) (Wuhan) (SARS-CoV-2 Wuhan, UniProt P0DTC2 686-1208); assay: SPR, antigen on chip
# T3 construct: NRC; FLAG, 6xHis tags
# [5] = target: SARS-CoV-2 S1-RBD fused to human Fc (S1-RBD-Fc) (SARS-CoV-2 Wuhan; human); assay: SPR, antigen on chip
Binder,IC50 [1],IC99 [1],Imax % [1],Kd [2],koff [2],kon [2],Kd [3],koff [3],kon [3],binding result [4],other results
B1,16.1 nM,121 nM,50%,–,–,–,–,–,–,–,–
B2,–,–,–,1.34 nM,0.000334 s⁻¹,250000 M⁻¹ s⁻¹,1.09 nM,0.000263 s⁻¹,241000 M⁻¹ s⁻¹,no binding,Kd [5]: 1.53 nM; koff [5]: 0.000255 s⁻¹; kon [5]: 166000 M⁻¹ s⁻¹
B3,6.1 nM,124 nM,53%,–,–,–,–,–,–,–,–
B4,12.1 nM,233 nM,44%,–,–,–,–,–,–,–,–
B5,–,–,–,12.8 nM,0.000446 s⁻¹,34900 M⁻¹ s⁻¹,–,–,–,–,binding result [3]: no binding; Kd [4]: 14.7 nM; koff [4]: 0.000414 s⁻¹; kon [4]: 28100 M⁻¹ s⁻¹
B6,–,–,–,0.661 nM,0.00141 s⁻¹,2.14e+06 M⁻¹ s⁻¹,0.659 nM,0.00138 s⁻¹,2.1e+06 M⁻¹ s⁻¹,no binding,Kd [5]: 0.773 nM; koff [5]: 0.00141 s⁻¹; kon [5]: 1.83e+06 M⁻¹ s⁻¹
B7,–,–,–,1.01 nM,0.00102 s⁻¹,1.01e+06 M⁻¹ s⁻¹,1.13 nM,0.00103 s⁻¹,905000 M⁻¹ s⁻¹,no binding,–
B8,–,–,–,0.59 nM,0.000571 s⁻¹,967000 M⁻¹ s⁻¹,0.53 nM,0.000555 s⁻¹,1.05e+06 M⁻¹ s⁻¹,no binding,–
B9,–,–,–,3.74 nM,0.000607 s⁻¹,162000 M⁻¹ s⁻¹,–,–,–,–,binding result [3]: no binding; Kd [4]: 4.28 nM; koff [4]: 0.000627 s⁻¹; kon [4]: 147000 M⁻¹ s⁻¹
B10,9.5 nM,14.2 nM,97%,–,–,–,–,–,–,–,–
B11,15 nM,184 nM,88%,–,–,–,–,–,–,–,–

# Reference: patent publication US20240270826A1 (NATIONAL RESEARCH COUNCIL OF CANADA, published 2024)
